Experiment: soluble on expression in E. coli; label from the status in PepcDB or PDB records

| Sequence | soluble on expression in E. coli |
| --- | --- |
| MTNNPLIPQSKLPQLGTTIFTQMSALAQQHQAINLSQGFPDFDGPRYLQERLAHHVAQGANQYAPMTGVQALREAIAQKTERLYGYQPDADSDITVTAGATEALYAAITALVRNGDEVICFDPSYDSYAPAIALSGGIVKRMALQPPHFRVDWQEFAALLSERTRLVILNTPHNPSATVWQQADFAALWQAIAGHEIFVISDEVYEHINFSQQGHASVLAHPQLRERAVAVSSFGKTYHMTGWKVGYCVAPAPISAEIRKVHQYLTFSVNTPAQLALADMLRAEPEHYLALPDFYRQKRDILVNALNESRLEILPCEGTYFLLVDYSAVSTLDDVEFCQWLTQEHGVAAIPLSVFCADPFPHKLIRLCFAKKESTLLAAAERLRQL | soluble |
| MAHHHHHHSLEIRAFSKYRKRALSLVRGKVLEIGVGTGKNLPYYPKDVEVIGIDFSRNMLKKAEERRRKLRLENVTLLYMDAQDLEFEDNTFDTIVSTFVFCTVPDPIKGLKEAYRVLKPGGRAIFLEHMKSESKLLNVPLYLMEPFIRTLLGTSLLRETQRNIERAGFKIEKVENLFYDIVRLIIATKDEG | soluble |
| MKICAVVVTYNRKDLLVECLEALRRQTGPLDAIYIIDNASTDGTPHLLMEGGYIDDPDGSVKNLPDHHGRSLKIVYVRLNENTGGAGGFYKGVRRAFHDEYDWIWLMDDDVEPEEYTLEKLLKASERIPEDVSAVAPVRFFQGSLFISETKTFNFRNPLKHFTYDFITDDDLKEEYFKISAISFEGLLIKREAIERIGFPDKSLFIIADDTDYAIRLRDYGPIYMVSGARLIKKVAAEPDFNWKGFYHLRNVIYLDRKYGENILVRYLRPLRTLIIVTYQCLKYKPSGFKYLLKAFWEGYTLKRGKTVKPGEFLEHHHHHH | soluble |
| MGSDKIHHHHHHMNYKITTLAENSVYGKGLQGEHGLSLLVEAGEHKVLFDTGASDLFLRNARLLGLDLSDVEYVVLSHGHRDHTGGLYAFLKMNSVAKVVCKREVFRKKFKNERENGMLHPEALDKSRFWLVDETTEIVPGVFAFPDVKVVDRNDTHFEHFFTEIEGEMRPDTFEDELALVLKGEKSLSVLSACSHRGITNIIRAVQNAFPGLGLKLVMGGFHIHNAEEEKFNVISAFLGMKLPKRLGVCHCTGIDKYALFRQQFNDRVFYNYTGWVETI | not soluble |
| MLCCPDPRRRGQHNNRRRNAMPKLHESRIHDLRPTQLTVGMIEVQAKKTHLAAMAPADQQAFMQAHPIPAVLGPGGQLYITDHHHLGRAALDAGVITGYFMVEADLSQHSLDDFWKAMDQNLWVHPLDEHGVRHYYASIPKHLEKLVDDPYRSLAGYVRDAGGYDKTPTAFAEFVWADFFRRSIPIEDLLADFQAAVHAALPLAKSKFAKALPGYNGKLEHHHHHH | not soluble |
| MGSDKIHHHHHHMLKLYSFGPAANSMKPLLTVFEKGLDVEKHRLDPAKFEHHTDWFKAINPRGQVPALVDGDKVVTESTVICEYLEDEYPTEVALRPADSFGKAQMRIWTKWVDEYFCWCVSTIGWHRYVGNMVKSLSDAEFEEKVKAIPVIEQQVKWRRAREGFPQDMLDEEMRKIAYSVRKLDDHLADHEWLVPGQYTLADICNFAIANGMQFGFAELVNKQDTPHLVRWIEQINERPAVKQMFAQVELEKLGPRE | not soluble |
| MAPTLLELTASIVSSHAAVSELSTEELVQEIQKVHATLQQLEGGAAAPEVAAEEAKAPAMTLKKAFQADQVCCMICGKGGMKTLTRHLAQVHQMKPGEYRKQFNIPSSQPLTAKKFSEARKQMAKDRGLAENLAKARAVRAAKIQEKKAAAEKPAKTKATRAKKATA | not soluble |
| MIETEKKEERVLLIGVELQGMDSFDLSMEELASLAKTAGAVVVDSYRQKREKYDSKTFVGSGKLEEIALMVDAEEITTVIVNNRLTPRQNVNLEEVLGVKVIDRMQLILDIFAMRARSHEGKLQVHLAQLKYLLPRLVGQGIMLSRQAGGIGSRGPGESQLELNRRSVRNQITDIERQLKVVEKNRATVREKRLESSTFKIGLIGYTNAGKSTIMNILTSKTQYEADELFATLDATTKSIHLGGNLQVTLTDTVGFIQDLPTELVSSFKSTLEESKHVDLLVHVIDASNPYHEEHEKTVLSIMKDLDMEDIPHLTLYNKADLVEDFTPTQTPYTLISAKSEDSRENLQALLLDKIKEIFEAFTLRVPFSKSYKIHDLESVAILEERDYQEDGEVITGYISEKNKWRLEEFYDLEHHHHHH | not soluble |
| MLPKPGTYYLPWEVSAGQVPDGSTLRTFGRLCLYDMIQSRVTLMAQHGSDQHQVLVCTKLVEPFHAQVGSLYIVLGELQHQQDRGSVVKARVLTCVEGMNLPLLEQAIREQRLYKQERGGSQ | soluble |

— the DeepSol protein solubility set
